Blank lines part the entries; values can stand above or below the molecule they belong to.
Legend:
[1] = biological target: single-chain canine FcRn (canine); assay: SPR (Biacore T100), steady state, pH 6.0; single-chain FcRn amine-coupled to CM5 chip, analyte at 0.0625-2000 nM
[2] = biological target: single-chain murine FcRn (mouse) (UniProt Q61559); assay: as above
[3] = biological target: single-chain human FcRn (human) (UniProt P55899); assay: as above
[4] = tested on: T1, rBDD FVIII (recombinant B-domain deleted FVIII)
T1 sequence: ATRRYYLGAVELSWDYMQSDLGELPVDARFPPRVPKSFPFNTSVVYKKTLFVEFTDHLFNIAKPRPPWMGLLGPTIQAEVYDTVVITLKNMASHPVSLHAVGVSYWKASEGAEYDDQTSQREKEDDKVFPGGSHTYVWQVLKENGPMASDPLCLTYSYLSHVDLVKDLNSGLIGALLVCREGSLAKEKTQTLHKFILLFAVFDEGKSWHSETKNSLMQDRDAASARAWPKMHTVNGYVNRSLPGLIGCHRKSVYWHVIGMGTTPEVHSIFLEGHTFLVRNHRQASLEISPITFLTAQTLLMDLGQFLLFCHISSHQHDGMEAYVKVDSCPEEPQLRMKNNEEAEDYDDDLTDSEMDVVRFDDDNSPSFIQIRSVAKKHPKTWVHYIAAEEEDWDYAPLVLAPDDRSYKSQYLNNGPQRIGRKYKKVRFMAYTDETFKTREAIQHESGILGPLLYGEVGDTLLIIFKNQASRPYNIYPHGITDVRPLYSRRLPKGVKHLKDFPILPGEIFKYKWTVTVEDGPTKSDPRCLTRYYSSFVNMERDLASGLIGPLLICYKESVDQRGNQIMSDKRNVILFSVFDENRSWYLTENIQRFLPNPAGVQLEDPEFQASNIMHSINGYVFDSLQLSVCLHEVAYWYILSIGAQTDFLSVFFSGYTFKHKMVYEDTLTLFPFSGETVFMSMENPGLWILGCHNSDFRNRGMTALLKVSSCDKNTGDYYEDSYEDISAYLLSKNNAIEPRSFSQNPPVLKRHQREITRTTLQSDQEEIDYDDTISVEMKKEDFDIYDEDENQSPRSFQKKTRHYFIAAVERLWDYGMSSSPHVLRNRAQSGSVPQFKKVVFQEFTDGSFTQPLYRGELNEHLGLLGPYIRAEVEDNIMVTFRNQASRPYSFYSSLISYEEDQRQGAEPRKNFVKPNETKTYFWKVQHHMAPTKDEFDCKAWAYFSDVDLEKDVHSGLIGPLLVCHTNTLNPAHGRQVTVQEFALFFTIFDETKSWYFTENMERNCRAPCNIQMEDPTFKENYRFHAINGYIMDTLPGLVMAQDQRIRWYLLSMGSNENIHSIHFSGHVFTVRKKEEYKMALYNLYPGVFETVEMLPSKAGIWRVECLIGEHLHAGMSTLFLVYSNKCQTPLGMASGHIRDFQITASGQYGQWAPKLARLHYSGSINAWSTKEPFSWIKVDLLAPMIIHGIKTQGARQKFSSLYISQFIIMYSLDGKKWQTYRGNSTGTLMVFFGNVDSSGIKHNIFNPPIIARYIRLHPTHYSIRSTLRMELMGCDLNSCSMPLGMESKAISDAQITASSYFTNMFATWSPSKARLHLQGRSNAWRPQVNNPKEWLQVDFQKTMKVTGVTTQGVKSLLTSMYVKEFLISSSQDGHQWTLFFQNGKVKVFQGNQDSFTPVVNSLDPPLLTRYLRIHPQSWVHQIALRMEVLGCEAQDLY

[5] = biological target: T2, human von Willebrand factor (human, UniProt P04275 764-2813); assay: SPR (BIAcore); FVIII protein as analyte, hvWf as ligand; N=5; KD = off-rate/on-rate
T2 construct: also called hvWf; vWF
Protocol: (§1) Kinetic rate parameters of Kₐ (on-rate) and Kd (off-rate), and the affinity KD (Kd/Kₐ), were determined for each FVIII interaction under identical conditions.

[6] = biological target: T2, human von Willebrand factor; assay: SPR (BIAcore); FVIII protein as analyte, hvWf as ligand; N=5
Protocol: as §1

Chain of single-chain canine FcRn (canine) (chain, as listed by the source, form in doubt): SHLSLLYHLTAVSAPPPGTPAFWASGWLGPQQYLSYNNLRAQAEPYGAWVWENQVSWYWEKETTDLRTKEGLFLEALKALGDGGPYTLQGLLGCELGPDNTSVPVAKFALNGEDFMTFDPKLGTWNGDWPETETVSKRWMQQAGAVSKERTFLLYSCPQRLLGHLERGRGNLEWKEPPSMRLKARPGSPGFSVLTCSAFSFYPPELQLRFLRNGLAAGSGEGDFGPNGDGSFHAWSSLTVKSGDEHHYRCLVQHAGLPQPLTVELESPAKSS

Molecule: activated Factor IX
Km (nM) (called Kd in the text): FXa generation rate against FIXa concentration, thrombin-activated FVIII protein on 25% PS-75% PC vesicles [4]: 2.5 nM
Vmax (nM/min): FXa generation rate against FIXa concentration [4]: 4 nM/min

Molecule: activated protein C
normalized FXa generation rate following cleavage by APC (thrombin 30' = 100); shown without a number [4]: 'BDD FVIII' is one of the two lighter bars of each group (alike in the scan); both lighter bars: about 8-16 without thrombin, 100 after thrombin 30', not lowered after a further 15' with APC (about 108-111), fallen to about 18-27 after 90' with APC

The remaining lines, values ahead:

EC50 [1]: 196 nM
EC50 [2]: < 22.4 nM
EC50 [3]: 558 nM
Molecule: Human IgG1 (antibody)

Kd [5]: 0.846 nM
koff [6]: 0.00114 s⁻¹
kon [6]: 1.37e+06 M⁻¹ s⁻¹
B1: rBDD FVIII (recombinant B-domain deleted FVIII) (other)
chain: T1 sequence
notes: The commercial product is largely processed into heavy and light chains; also called XYNTHA
